Data on one molecule can be found in paper PMC7523994.

The target in test [1] is total gliadin fraction (Triticum aestivum). Put plainly: turbidimetry; optical density at 540 nm after 30 min of mixing at room temperature; gliadins constant at 1 mg/mL, PINA 0 to 0.1 mg/mL; 20 mM Tris-HCl pH 7.2, with or without 0.1 M NaCl; Hill ligand-binding model.
Test [2] has the same target. Put plainly: turbidimetry; optical density at 540 nm after 30 min of mixing at room temperature; gliadins constant at 1 mg/mL, PINA 0 to 0.1 mg/mL; 20 mM citrate pH 5, with or without 0.1 M NaCl; Hill ligand-binding model.
For test [3], the target named is α-gliadin (Triticum aestivum). The test can be described thus: SPR; α-gliadin, γ-gliadin or (PQQPY)8 covalently bound to a CM5 chip (EDC/NHS, 10 mM acetate pH 4.7); PINA flowed over at 10 μL/min, 25°C, 10 mM Hepes pH 7.4, 150 mM NaCl, 3.4 mM EDTA, 0.005% P20; global kinetic fit, 1:1 Langmuir model. Background: Surface plasmon resonance follows binding to a sensor surface in real time, without labels.

The target of test [4] is γ-gliadin (Triticum aestivum) (UniProt P08453). Described as above.
Chain of γ-gliadin (Triticum aestivum) (P08453 20-327): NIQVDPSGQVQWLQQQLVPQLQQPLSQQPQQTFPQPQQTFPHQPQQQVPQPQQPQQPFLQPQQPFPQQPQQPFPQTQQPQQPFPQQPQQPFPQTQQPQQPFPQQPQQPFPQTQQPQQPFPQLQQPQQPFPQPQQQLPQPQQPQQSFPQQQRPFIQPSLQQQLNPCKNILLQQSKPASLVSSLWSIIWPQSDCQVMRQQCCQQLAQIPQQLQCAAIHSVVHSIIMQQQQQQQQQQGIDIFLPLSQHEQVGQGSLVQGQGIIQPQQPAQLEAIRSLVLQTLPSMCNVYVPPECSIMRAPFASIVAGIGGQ
For test [5], the target named is total gliadin fraction (Triticum aestivum). The test can be described thus: turbidimetry; optical density at 540 nm after 30 min of mixing at room temperature; gliadins constant at 1 mg/mL, PINA 0 to 0.1 mg/mL; 20 mM malate pH 5, with or without 0.1 M NaCl; Hill ligand-binding model.

B1: puroindoline A (natural protein)
chain: DVAGGGGAQQCPVETKLNSCRNYLLDRCSTMKDFPVTWRWWKWWKGGCQELLGECCSRLGQMPPQCRCNIIQGSIQGDLGGIFGFQRDRASKVIQEAKNLPPRCNQGPPCNIPGTIGYYW
For orientation: Kd means the concentration at which binding is half-saturated. Low readings indicate a tighter complex, high ones a looser complex. A word on the koff: it is the rate constant with which the complex falls apart. The term kon denotes the rate constant with which the complex forms. Read a low kon as slower complex formation. Take B1: the Kd in test [1] stood at 1000 nM; in test [2] it was 600 nM; in test [3], 4450 nM; in test [4], 630 nM; in test [5] it was 400 nM. In addition, the results for the koff in test [3] and in test [4] were 0.00255 s⁻¹ and 0.00185 s⁻¹, respectively. For the same molecule, the results for the kon in test [3] and in test [4] were 450 M⁻¹ s⁻¹ and 3600 M⁻¹ s⁻¹, respectively. Further, the figures for the response at equilibrium at 2.5 μM PINA in test [3] and in test [4] were 160 RU and 34 RU, respectively.
